Experimental findings from the nanobody polyreactivity screen of Harvey et al. (2022) are described below.

This series in a line: yeast display, Sf9 membrane polyspecificity reagent, FACS + sequencing; frameworks hold sequencing errors. An outline of the steps:
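In a synthetic yeast display library (Saccharomyces cerevisiae BJ5465), nanobody expression was induced with galactose for 36–48 hours. FACS gates were set low and high (top ~1%) using anti-HA fluorescence for expression and streptavidin fluorescence for binding of the Sf9 membrane reagent. Each polyreactivity label is drawn from the gate of origin.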
In the case of “QVQLVESGGGLVQAGGSLRLSCAASGRTFQRYTMGWYRQAPGKERELVASISRSGGSTYYADSVKGRFTISRDNAKNTVYLQMNSLKPEDTAVYYCATRSLFWNRNHYRVSSPVLFDYWGQGTQVTVSS”, the “polyreactivity (PSR sort gate)” value is “high polyreactivity”.

Take “QVQLVESGGALVQAGGSLRLSCAASGSTFVYYAMGWYRQAPGKERELVAAISRSGTSTYYADSVKGRFTISRDNAKNTVYLQMNSLKPEDTAVYYCNARKKQGYDYWGQGTQVTVSS”: the “polyreactivity (PSR sort gate)” value is “high polyreactivity”.

Turning to “QVQLVESGGGLVQAGGSLRLSCAASGSIFGYAMGWYRQAPGKERELVAAISFSGVSTYYADSVKGRFTISRDNAKNTVYLQMNSLKPDDTAVYYCATDRFYYRTGYDPYYYWGQGTQVTVSS”, the “polyreactivity (PSR sort gate)” value was “low polyreactivity”.

For the sequence “QVQVESGGGLVQAGGSLRLSCAASGSIIDQYVMGWYRQAPGKERELVAAISRGGRTYYADSVKGRFTISRDNAKNTVYLQMNSLKPEDTAVYYCAARSDVRGFDYWGQGTQVTVSS”, the “polyreactivity (PSR sort gate)” value is “low polyreactivity”.

“QVQLVESGGGIVQAGGSLRLSCAASGITFAFYDMGWYRQAPGTERELVAAISYSGGGTYYADSVKGRFTISRDNAKNTVYLQMNSLKPEDTAVYYCAADPKTHPLFGEDYWGQGTQVTVSS”: the “polyreactivity (PSR sort gate)” value is on record as “low polyreactivity”.

In the case of “QVQLVESGGVLFQAGGSLRLSCAASGRISYANAIGWYRQAPGKESEMVASITYSAGSTYADSVKGRFTISRDNAKNTVYLQMISLKPEDTAVYYCAKRPCQHYRSYLMDYWGQGTQVNVSS”, the “polyreactivity (PSR sort gate)” value was “low polyreactivity”.

Take “QVQLVESGGGLVQAGGSLRLSCAASGRIFQYYAMGWYRQAPGKERELVAAISSAGSTYYADSVKGRFTISRDNAKNTVYLQMNSLKPEDTAVYYCAVGKQVLSYQNYYWGQGTQVTVSS”: the “polyreactivity (PSR sort gate)” value was “low polyreactivity”.

“QVQLVESGGGLVQAGGSLRLSCAASGRIFAYYSMGWYRQAPGKERELVAAISRSGVSTYYADSVKGRFTISRDNAKNTVYLLMNSLKPEDTAVYYCAARWRSGFTSGDFWGQGTQVTVSS”: the “polyreactivity (PSR sort gate)” value is recorded as “low polyreactivity”.

For “QVQLEESGGGLVQAGGSLRLSCAASGSIFYDNVMGWSRQAPGKERELVAGITRGGSTNYADSVKGPFTISRDNAKNTVYLQMNSLKPEDTAVSYCAADGTYVWGSEEGNYWGQGTQVNVSS”, the “polyreactivity (PSR sort gate)” value was “low polyreactivity”.

For the sequence “QVQLVESGGGLVQAGGSLRLSCAASGYIFDDNAMGWYRQAPGKERELVATNYADSVKGRFTISRDNAKNTVYLQMNSLKPEDTAVYYCAKDVWQTYTDLDHWGQGTQVTVSS”, the “polyreactivity (PSR sort gate)” value is “low polyreactivity”.

For the sequence “QVQLVESGGGLVQAGGRHRLSCAASGSTLTRNTMGWYRQAPGIQRELVATITRSGGSTYYADSVKGRFTISRDNAKNTVYLQMNSLKPEDTAVYYCAVRRQTFRYVYPGMDYWGQGTQETVSS”, the “polyreactivity (PSR sort gate)” value is recorded as “high polyreactivity”.

For “QVQLVESGGGLVQAGGSLRLSCAASGFTFKAYAMGWYRQAPGKERELVAAISNSGGTTYYADSVKGRFTISRDNAKNTVYLQMNSLKPEDTAVYYCAAYQYYIPKMYYWGQGTQVTVSS”, the “polyreactivity (PSR sort gate)” value was “high polyreactivity”.

Take “LVQLVESGGGLVQAGGSLRLSSAASGLIFGYNAKGWYRQAPGKERELVAASSWSGGRTYYADSVKGRFTISRDNAKNTVYLHMNILKPEDTAVYYCAAVVRHSYFRDDHWGQGTQVTVSS”: the “polyreactivity (PSR sort gate)” value is “high polyreactivity”.

As for “QVQLVESGGGLVQAGGSLRLSWAASGNTFNNNPMGWYRQAPGKERELVAAISGSGGSTYYADSVKGRFTISRDNAKNTVYLQLNSLKPEDTAGYYCAVRLVHGGKRYVYWGQGTQVTVSS”, the “polyreactivity (PSR sort gate)” value was “high polyreactivity”.

Take “QVQLVESGGGLVQAGGSLRLSCAASGSIFTRYTMGWCRQAPGKERELVAVISDSSGRTYYADTVKGRFTISRDNGKNTDYLQMNSLKPEDPAVYYCAAEYSDIYEYWGQGTQVTVSS”: the “polyreactivity (PSR sort gate)” value is reported as “low polyreactivity”.

“QVQLVESGGGLVQAGGSLRLSCAASGRTFWYYTMGWYRQAPGKERELVAAISSGGTTNYADSVKGRFTISRDNAKNTVYLQMNSLKPEDTAVYYCAARYRSYAVRLRGYDYWGQGTQVTVSS”: the “polyreactivity (PSR sort gate)” value was “high polyreactivity”.

In the case of “QVQLVDSGGGLVQAGGSLRLSCAASGLIVFYAMGWYRQAPGKERELVAGISSGGNTNYADSVKGRFTISRDNAKNTFYLQMNSMKPQDTSVYYCAAVYLLSSYDFWGQGTQVTVSS”, the “polyreactivity (PSR sort gate)” value is reported as “high polyreactivity”.

With “QVQLVESGGGLVQAGGSLRLSCAASGSTFYWYAMGWYRQAPGKERELVDDITFSSGGTYYADSVKGRFTISRDNAKNTVYLQMNSLKPEVTADYYCATEYSLWYTRDWQRYEYWGQGTQVTVSS”, the “polyreactivity (PSR sort gate)” value is listed as “high polyreactivity”.

With “QVQLVESGGGLVQAGGSLRISCAPSGFIYSYAMGWYRQAPGKERELVASITLNGGSTYYADSVKGRFTISRDNAKNTVYLQMNSLKPEDTAVYYCNADRASLSIGGYYRLWYDYWGQGTQVTVSS”, the “polyreactivity (PSR sort gate)” value is given as “high polyreactivity”.

Consider “QVKLVESGGGLVQAGGSLRLSCASSGFTFFHYAKGWYRQAPGKERELVAAISWSGGSTYYADTVKGRFTISRDNAKNTVYLQMNSLKPEDTAVYYCAADGGSTAFDYWGQGTQVTVSS”, for which the “polyreactivity (PSR sort gate)” value is recorded as “low polyreactivity”.

As for “QVQLVESWGGLVQAGGSLRLSCAASGFTFRGYARGWYRQAPGKERELVAAISRSGGSTNFADSVKGRFTISRDNAKNTVYLQMNSLKPEDTAVYYCAAGWNPYDYWGQGTQVTVSS”, the “polyreactivity (PSR sort gate)” value was “high polyreactivity”.

As for “QVQLVESGGGLVQAGGSLRLSCSASGRTFYSYAMGWYRQPRGKERELVATIRRGGRTNYADSVKGRFTISRDNAKNTVYLLMNSLKPEDTAVYYCAAEDYRSLVTSTYDYWGQGTQVAVSS”, the “polyreactivity (PSR sort gate)” value is given as “low polyreactivity”.

As for “QVQLVESGGGLDQAGGSLRLSCAASGFTFRWYAMGWYRQAPGKERELVAAISRGGNTNYADSVKGRFTISRDNAKNTVYLQMNSLKPEDSAVYYCARNTGPYLGYYHRYYWGHGTQVTVSS”, the “polyreactivity (PSR sort gate)” value was “high polyreactivity”.

Regarding “QVQLVESGGGLVQAGGSLRLSCAASGITVWIYAMGWYRQAPGKERELVAAITGRGGSTYYADSVKGRFTISRDKAKNTLYLQRNSLKPEDTAVYYCAAESWYSTYDYWGQGTQVTVSS”, the “polyreactivity (PSR sort gate)” value is recorded as “high polyreactivity”.

With “QVQLVESVGGLVQAGGSLGLTCAASGFIFRYYAMGWYRQAPGLERELVAPINASGGRTYYADSVKGRFTISRDNARNTLYLQMNSLKPEDTAVYYCAAYRSYQTFDYWGQGTQVTVSS”, the “polyreactivity (PSR sort gate)” value is given as “high polyreactivity”.

Regarding “QVQLVESVGGLLQAGGSLRLSCAASGSIFFVYTMGWYRQAPGKERELFATITDSDGGTYYADSVKGRFTISRDNAKNTVYVQMNSLKPEDTAVYYCAAEVEVYFAIYEYWGQGTQVTVSS”, the “polyreactivity (PSR sort gate)” value is “low polyreactivity”.

Consider “QVQLVESGGGLVQAGGSLRLNCAASGITFSANAMGWYRQATGKERELVASNRSSGGSTYYADSVKGRFTISRDNEKKTVYLQMNSLKPEDTAVYSRNARLGPLYVYRQYDSWGQGTQVTVSS”, for which the “polyreactivity (PSR sort gate)” value is “low polyreactivity”.

Consider “QVQLVESGGGLVHAGGSLRLSCAASGSIFFQYGMGWYRHAPGKEREYVAAISVSGGSTYYADSVKGRFTISRDNAKNSVYLQMNSLKPEDTAVYYCAADGSTDYVYSPPIDEYDFWGQGTQVTVSS”, for which the “polyreactivity (PSR sort gate)” value is listed as “low polyreactivity”.

Turning to “QVQLVESGGGLVQAGGSLRLSSAASGSTFTPYVMGWYRQAPGKERELVAAISKRGGSTYYADSVKGRFTISRDNANNTVYLQMNSLKPEDTAVYYCAAVQPAWGNGYWGQGTQVTVSS”, the “polyreactivity (PSR sort gate)” value was “high polyreactivity”.

Take “QVQLVESGGGLVQAGGSLRLSCAASGRIFYINAMGWYRQAPGKERELVAAITEGGVSTYYADSVKGRFTISRDNAKNTVYLQMNSLKPEDTAVYYCNTTGGPDGIVIYEYWGQGTQVTVSS”: the “polyreactivity (PSR sort gate)” value is listed as “low polyreactivity”.

With “QVQLVESGGGLVQAGGSLRLRCAASGFIFRLYAMGWYIQAPGKERELVASITQGGSTYYADSVKGRFTISRDNAKNTVYLLMNSLKPEDTAVNDCAATYLHVYRRRFYYWGQGTQVSVSS”, the “polyreactivity (PSR sort gate)” value is recorded as “high polyreactivity”.

“QVQLVESGGGLVQAGGSLRLSCAGSGSTILYYVMGWYRQAPGKARELVAAITGTGGRTYYADSVKGRFTISRDNAKNTVYLQMNSLKPEDTAVYYCAADGKFEYDYWGQGTQVTVSS”: the “polyreactivity (PSR sort gate)” value is reported as “low polyreactivity”.

For “QVQLVESGGGLVQAGGSLRLSCAASGITSVDYAMRWYRQAPGKERELVAAITWSDSSTYYADSVKGRFTISRDNAKNTVYLQMNSLKPEDTAVYYCAAEYYFWGWEFDYWGQGTQVTVSS”, the “polyreactivity (PSR sort gate)” value was “high polyreactivity”.

For the sequence “QVQLVESGGGLVQAGGSLRLSSAASGRIFSRNGMGWYRPAPGKERELVAAIRRYGGSTYYADSVKGRFTISRDNEKNTVNLQMNSLKAEDTAVFFCAAEPYGGGVKHSAYDYWGQGTQVTVSS”, the “polyreactivity (PSR sort gate)” value is recorded as “low polyreactivity”.

With “QVQLVESGGGLVQAGGSLRLSCAASGSNFPYNAMGWYRQAPGKERELVAAITGRGGSTYYADSVKGRFTISRDNAKNTVYLHMNSLKPEDTAVYYCAAVTRNQGYYRYYYWGQGTQVTVSS”, the “polyreactivity (PSR sort gate)” value is reported as “high polyreactivity”.

Turning to “QDQLVESGGFLVQAGGSLRLSCAASGRTFSYYDMGWYRQAPGKERELVAAISSGGSTNYADSVKARFTISRENAKNTFYLQMNSLKPEDTGVSYCATSCIWGYGRVRWVTYYYWGQGTQVTVSS”, the “polyreactivity (PSR sort gate)” value is reported as “low polyreactivity”.

As to “QVQLVESGGGLVQAGGSLRLSCAASGFTFGSNAMGWYRQAPGKERELVATISRRGGRTYYADSVKGRFTISRDNAKNTVYLQMNSLKPEDTAVYYCAAYLRPGGNYYWGQGTQVTVSS”, the “polyreactivity (PSR sort gate)” value was “high polyreactivity”.

Take “QVQLVESGGGLVQAGGSLRLSCAASGSTFWVNAMGWYRQAPGKERELVAAITVRGTSTYYADSVKGRFTISRDNAKNTVYLQMNSLKPEDTAVYYCAKGSLGSTRYYYWGQGTQVTVSS”: the “polyreactivity (PSR sort gate)” value is listed as “low polyreactivity”.

With “QVQLVESGGGLVQAGGSLRLSCAASGFTFRWYAIGWYSQAPGKEREFVATISTRGGNTYYADSVKGRFTISRDNAKNTVYLQMNSLKPEDTAVYYSAAVGYAAYHRMDYWGQGTQVNVSS”, the “polyreactivity (PSR sort gate)” value was “high polyreactivity”.

On to “QVQLVESGGGLVQAGGSLRLSWATSGFILLDNALGWYRQAPGKESEFVASINISGDRTFYADSVKGRFTISRDNAKNTVYLQMNSLKAEDTAVYYCAKEPGWGRRSTTAYDYWGQGTQVTVSS”, for which the “polyreactivity (PSR sort gate)” value is given as “low polyreactivity”.

On to “QVQLVESGGGLVQAGGSLRLSCAASGRISHYNAMGWYRQAPGKERELVAAISSRGGSTYYADSVKGRFTISRDNAKNTVYLQMNSLKPEDTAVYYCADTAGYWGQGTQVTVSS”, for which the “polyreactivity (PSR sort gate)” value was “high polyreactivity”.
